One variant from IntAct's records for PubMed 26031419 can be followed below.

B1: Glucocorticoid receptor (Homo sapiens), P04150-1 (parent)
chain: MDSKESLTPGREENPSSVLAQERGDVMDFYKTLRGGATVKVSASSPSLAVASQSDSKQRRLLVDFPKGSVSNAQQPDLSKAVSLSMGLYMGETETKVMGNDLGFPQQGQISLSSGETDLKLLEESIANLNRSTSVPENPKSSASTAVSAAPTEKEFPKTHSDVSSEQQHLKGQTGTNGGNVKLYTTDQSTFDILQDLEFSSGSPGKETNESPWRSDLLIDENCLLSPLAGEDDSFLLEGNSNEDCKPLILPDTKPKIKDNGDLVLSSPSNVTLPQVKTEKEDFIELCTPGVIKQEKLGTVYCQASFPGANIIGNKMSAISVHGVSTSGGQMYHYDMNTASLSQQQDQKPIFNVIPPIPVGSENWNRCQGSGDDNLTSLGTLNFPGRTVFSNGYSSPSMRPDVSSPPSSSSTATTGPPPKLCLVCSDEASGCHYGVLTCGSCKVFFKRAVEGQHNYLCAGRNDCIIDKIRRKNCPACRYRKCLQAGMNLEARKTKKKIKGIQQATTGVSQETSENPGNKTIVPATLPQLTPTLVSLLEVIEPEVLYAGYDSSVPDSTWRIMTTLNMLGGRQVIAAVKWAKAIPGFRNLHLDDQMTLLQYSWMFLMAFALGWRSYRQSSANLLCFAPDLIINEQRMTLPCMYDQCKHMLYVSSELHRLQVSYEEYLCMKTLLLLSSVPKDGLKSQELFDEIRMTYIKELGKAIVKREGNSSQNWQRFYQLTKLLDSMHEVVENLLNYCFQTFLDKTMSIEFPEMLAEIITNQIPKYSNGNIKKLLFHQK

In the first experiment the parent is B1. The note with it: with ncoa2_mouse Ncoa2, Q61026.
Chain of ncoa2_mouse Ncoa2, Q61026 (Q61026 whole entry): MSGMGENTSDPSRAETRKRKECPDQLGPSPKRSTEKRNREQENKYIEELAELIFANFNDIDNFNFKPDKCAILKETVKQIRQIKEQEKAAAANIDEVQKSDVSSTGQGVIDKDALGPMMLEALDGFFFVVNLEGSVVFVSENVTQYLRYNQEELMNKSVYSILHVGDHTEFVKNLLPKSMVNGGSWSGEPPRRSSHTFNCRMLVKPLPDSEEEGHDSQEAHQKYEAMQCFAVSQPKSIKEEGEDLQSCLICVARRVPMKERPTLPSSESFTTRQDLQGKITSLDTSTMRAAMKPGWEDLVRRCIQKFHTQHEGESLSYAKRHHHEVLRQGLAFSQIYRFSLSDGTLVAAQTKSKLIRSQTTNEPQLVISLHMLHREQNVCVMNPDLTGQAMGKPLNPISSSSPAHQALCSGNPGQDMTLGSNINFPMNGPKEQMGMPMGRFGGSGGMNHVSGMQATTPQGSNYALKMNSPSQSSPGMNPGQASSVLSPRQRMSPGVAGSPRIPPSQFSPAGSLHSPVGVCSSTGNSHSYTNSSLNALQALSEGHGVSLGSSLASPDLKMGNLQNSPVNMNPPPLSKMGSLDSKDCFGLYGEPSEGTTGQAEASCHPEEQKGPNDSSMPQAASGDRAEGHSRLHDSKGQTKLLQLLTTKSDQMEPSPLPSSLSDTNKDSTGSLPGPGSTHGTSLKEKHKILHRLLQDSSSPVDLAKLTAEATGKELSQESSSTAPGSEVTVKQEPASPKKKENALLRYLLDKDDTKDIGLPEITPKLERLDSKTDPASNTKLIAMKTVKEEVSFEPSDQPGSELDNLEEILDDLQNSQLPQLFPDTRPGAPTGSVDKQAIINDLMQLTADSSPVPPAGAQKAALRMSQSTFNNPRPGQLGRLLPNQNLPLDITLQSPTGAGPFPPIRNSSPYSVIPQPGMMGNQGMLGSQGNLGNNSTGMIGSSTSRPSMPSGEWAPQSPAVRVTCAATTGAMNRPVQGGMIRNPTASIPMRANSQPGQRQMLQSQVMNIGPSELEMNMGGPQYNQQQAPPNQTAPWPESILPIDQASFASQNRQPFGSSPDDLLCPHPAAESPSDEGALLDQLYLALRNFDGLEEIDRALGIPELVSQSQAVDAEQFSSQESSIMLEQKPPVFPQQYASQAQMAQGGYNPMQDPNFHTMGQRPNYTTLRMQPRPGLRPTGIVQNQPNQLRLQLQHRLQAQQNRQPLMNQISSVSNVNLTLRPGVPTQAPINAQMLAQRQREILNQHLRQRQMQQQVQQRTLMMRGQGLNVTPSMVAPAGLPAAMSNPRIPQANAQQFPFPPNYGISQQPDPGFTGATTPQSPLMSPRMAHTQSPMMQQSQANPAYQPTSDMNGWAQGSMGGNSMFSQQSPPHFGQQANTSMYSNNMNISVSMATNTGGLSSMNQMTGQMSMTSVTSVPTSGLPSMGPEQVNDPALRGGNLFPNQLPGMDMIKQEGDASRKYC
Take H726R: the “effect of a mutation on the interaction” value was “with no effect”.

In a further experiment the parent is B1. To be noted: with ncoa2_mouse Ncoa2, Q61026. This is another data set of the same source.
Consider H726R, for which the “effect of a mutation on the interaction” value is recorded as “decreasing interaction strength”.
